In paper PMC6314204 (Biochemistry, 2018) one finds Km, kcat and kcat/Km data, which are given here for two substances.

Data set [1] relates to C[C@@H](O)[C@H]1C(=O)N2C(C(=O)O)=C(S[C@@H]3CN[C@H](C(=O)N(C)C)C3)[C@H](C)[C@H]12. Nature of the data set: purified protein. The settings on record: 50 mM HEPES, pH 7.5, 150 mM NaCl, 10 μM ZnCl2, 37 °C.
Data set [2] deals with CC(=O)OCC1=C(C(=O)O)N2C(=O)[C@@H](NC(=O)Cc3cccs3)[C@H]2SC1. Briefly: purified protein. The settings on record: 50 mM HEPES, pH 7.5, 150 mM NaCl, 10 μM ZnCl2, 37 °C.
For data set [3], the system named is C[C@@H](O)[C@H]1C(=O)N2C(C(=O)O)=C(SCCN=CN)C[C@H]12. Briefly: purified protein. The settings on record: 50 mM HEPES, pH 7.5, 150 mM NaCl, 10 μM ZnCl2, 37 °C.
The next data set addresses SPS-1 (Sediminispirochaeta smaragdinae, UniProt E1R245). Conditions: read-out: SPS-1 / Km; 50 mM HEPES, pH 7.5, 150 mM NaCl, 10 μM ZnCl2, 37 °C.

Chain of SPS-1 (E1R245 32-276 limits assumed): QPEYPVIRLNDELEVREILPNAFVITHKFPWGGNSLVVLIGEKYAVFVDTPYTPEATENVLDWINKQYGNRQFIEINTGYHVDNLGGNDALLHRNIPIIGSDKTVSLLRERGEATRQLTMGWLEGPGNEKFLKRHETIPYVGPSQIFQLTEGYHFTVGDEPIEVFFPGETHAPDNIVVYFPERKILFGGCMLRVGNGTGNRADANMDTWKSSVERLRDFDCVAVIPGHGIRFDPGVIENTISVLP

As for “SPS-1 (Sediminispirochaeta smaragdinae DSM 11293)”, in data set [1], the Km turned out to be 170 ± 30 µM; the kcat – broadly, the maximal rate divided by the concentration of active sites – worked out at 520 ± 50 s⁻¹; the kcat/Km (commonly the turnover number divided by the Michaelis constant) is 3e+06 M⁻¹ s⁻¹. Moreover, in data set [2], the Km turned out to be 110 ± 20 µM, the kcat stood at 3.1 ± 0.1 s⁻¹ and the kcat/Km turned out to be 27000 M⁻¹ s⁻¹. Further, in data set [3], the Km was 290 ± 50 µM, the kcat was 470 ± 60 s⁻¹ and the kcat/Km stood at 1.63e+06 M⁻¹ s⁻¹.

Take chromacef: the Km at SPS-1 worked out at 120 ± 9 µM.
